{
  "source": "patent US20210030836A1",
  "about": "(SHANGHAI INSTITUTE OF NUTRITION AND HEALTH CHINESE ACADEMY …, published 2021)",
  "binders": {"B1": {"name": "Transforming growth factor kinase 1 (TAK1), phosphorylated (activated) (enzyme, human, UniProt O43318 1-606, looked up)", "chain": "MSTASAASSSSSSSAGEMIEAPSQVLNFEEIDYKEIEVEEVVGRGAFGVVCKAKWRAKDVAIKQIESESERKAFIVELRQLSRVNHPNIVKLYGACLNPVCLVMEYAEGGSLYNVLHGAEPLPYYTAAHAMSWCLQCSQGVAYLHSMQPKALIHRDLKPPNLLLVAGGTVLKICDFGTACDIQTHMTNNKGSAAWMAPEVFEGSNYSEKCDVFSWGIILWEVITRRKPFDEIGGPAFRIMWAVHNGTRPPLIKNLPKPIESLMTRCWSKDPSQRPSMEEIVKIMTHLMRYFPGADEPLQYPCQYSDEGQSNSATSTGSFMDIASTNTSNKSDTNMEQVPATNDTIKRLESKLLKNQAKQQSESGRLSLGASRGSSVESLPPTSEGKRMSADMSEIEARIAATTAYSKPKRGHRKTASFGNILDVPEIVISGNGQPRRRSIQDLTVTGTEPGQVSSRSSSPSVRMITTSGPTSEKPTRSHPWTPDDSTDTNGSDNSIPMAYLTLDHQLQPLAPCPNSKESMAVFEQHCKMAQEYMKVQTEIALLLQRKQELVAELDQDEKDQQNTSRLVQEHKKLLDENKSLSTYYQQCKKQLEVIRSQQQKRQGTS", "modifications": "phosphorylated (activated state; site not given)", "notes": "Endogenous protein immunoprecipitated with a p-TAK1 antibody from PSC27 cell lysates; also called p-TAK1"}},
  "biological_target": "T1, ATM, phosphorylated (activated) (human, UniProt Q13315 2-3056, phosphorylated (activated state; site not given))",
  "T1 construct": "Endogenous protein co-immunoprecipitated from PSC27 cell lysates; also called p-ATM",
  "T1 sequence (Q13315 2-3056 limits assumed)": "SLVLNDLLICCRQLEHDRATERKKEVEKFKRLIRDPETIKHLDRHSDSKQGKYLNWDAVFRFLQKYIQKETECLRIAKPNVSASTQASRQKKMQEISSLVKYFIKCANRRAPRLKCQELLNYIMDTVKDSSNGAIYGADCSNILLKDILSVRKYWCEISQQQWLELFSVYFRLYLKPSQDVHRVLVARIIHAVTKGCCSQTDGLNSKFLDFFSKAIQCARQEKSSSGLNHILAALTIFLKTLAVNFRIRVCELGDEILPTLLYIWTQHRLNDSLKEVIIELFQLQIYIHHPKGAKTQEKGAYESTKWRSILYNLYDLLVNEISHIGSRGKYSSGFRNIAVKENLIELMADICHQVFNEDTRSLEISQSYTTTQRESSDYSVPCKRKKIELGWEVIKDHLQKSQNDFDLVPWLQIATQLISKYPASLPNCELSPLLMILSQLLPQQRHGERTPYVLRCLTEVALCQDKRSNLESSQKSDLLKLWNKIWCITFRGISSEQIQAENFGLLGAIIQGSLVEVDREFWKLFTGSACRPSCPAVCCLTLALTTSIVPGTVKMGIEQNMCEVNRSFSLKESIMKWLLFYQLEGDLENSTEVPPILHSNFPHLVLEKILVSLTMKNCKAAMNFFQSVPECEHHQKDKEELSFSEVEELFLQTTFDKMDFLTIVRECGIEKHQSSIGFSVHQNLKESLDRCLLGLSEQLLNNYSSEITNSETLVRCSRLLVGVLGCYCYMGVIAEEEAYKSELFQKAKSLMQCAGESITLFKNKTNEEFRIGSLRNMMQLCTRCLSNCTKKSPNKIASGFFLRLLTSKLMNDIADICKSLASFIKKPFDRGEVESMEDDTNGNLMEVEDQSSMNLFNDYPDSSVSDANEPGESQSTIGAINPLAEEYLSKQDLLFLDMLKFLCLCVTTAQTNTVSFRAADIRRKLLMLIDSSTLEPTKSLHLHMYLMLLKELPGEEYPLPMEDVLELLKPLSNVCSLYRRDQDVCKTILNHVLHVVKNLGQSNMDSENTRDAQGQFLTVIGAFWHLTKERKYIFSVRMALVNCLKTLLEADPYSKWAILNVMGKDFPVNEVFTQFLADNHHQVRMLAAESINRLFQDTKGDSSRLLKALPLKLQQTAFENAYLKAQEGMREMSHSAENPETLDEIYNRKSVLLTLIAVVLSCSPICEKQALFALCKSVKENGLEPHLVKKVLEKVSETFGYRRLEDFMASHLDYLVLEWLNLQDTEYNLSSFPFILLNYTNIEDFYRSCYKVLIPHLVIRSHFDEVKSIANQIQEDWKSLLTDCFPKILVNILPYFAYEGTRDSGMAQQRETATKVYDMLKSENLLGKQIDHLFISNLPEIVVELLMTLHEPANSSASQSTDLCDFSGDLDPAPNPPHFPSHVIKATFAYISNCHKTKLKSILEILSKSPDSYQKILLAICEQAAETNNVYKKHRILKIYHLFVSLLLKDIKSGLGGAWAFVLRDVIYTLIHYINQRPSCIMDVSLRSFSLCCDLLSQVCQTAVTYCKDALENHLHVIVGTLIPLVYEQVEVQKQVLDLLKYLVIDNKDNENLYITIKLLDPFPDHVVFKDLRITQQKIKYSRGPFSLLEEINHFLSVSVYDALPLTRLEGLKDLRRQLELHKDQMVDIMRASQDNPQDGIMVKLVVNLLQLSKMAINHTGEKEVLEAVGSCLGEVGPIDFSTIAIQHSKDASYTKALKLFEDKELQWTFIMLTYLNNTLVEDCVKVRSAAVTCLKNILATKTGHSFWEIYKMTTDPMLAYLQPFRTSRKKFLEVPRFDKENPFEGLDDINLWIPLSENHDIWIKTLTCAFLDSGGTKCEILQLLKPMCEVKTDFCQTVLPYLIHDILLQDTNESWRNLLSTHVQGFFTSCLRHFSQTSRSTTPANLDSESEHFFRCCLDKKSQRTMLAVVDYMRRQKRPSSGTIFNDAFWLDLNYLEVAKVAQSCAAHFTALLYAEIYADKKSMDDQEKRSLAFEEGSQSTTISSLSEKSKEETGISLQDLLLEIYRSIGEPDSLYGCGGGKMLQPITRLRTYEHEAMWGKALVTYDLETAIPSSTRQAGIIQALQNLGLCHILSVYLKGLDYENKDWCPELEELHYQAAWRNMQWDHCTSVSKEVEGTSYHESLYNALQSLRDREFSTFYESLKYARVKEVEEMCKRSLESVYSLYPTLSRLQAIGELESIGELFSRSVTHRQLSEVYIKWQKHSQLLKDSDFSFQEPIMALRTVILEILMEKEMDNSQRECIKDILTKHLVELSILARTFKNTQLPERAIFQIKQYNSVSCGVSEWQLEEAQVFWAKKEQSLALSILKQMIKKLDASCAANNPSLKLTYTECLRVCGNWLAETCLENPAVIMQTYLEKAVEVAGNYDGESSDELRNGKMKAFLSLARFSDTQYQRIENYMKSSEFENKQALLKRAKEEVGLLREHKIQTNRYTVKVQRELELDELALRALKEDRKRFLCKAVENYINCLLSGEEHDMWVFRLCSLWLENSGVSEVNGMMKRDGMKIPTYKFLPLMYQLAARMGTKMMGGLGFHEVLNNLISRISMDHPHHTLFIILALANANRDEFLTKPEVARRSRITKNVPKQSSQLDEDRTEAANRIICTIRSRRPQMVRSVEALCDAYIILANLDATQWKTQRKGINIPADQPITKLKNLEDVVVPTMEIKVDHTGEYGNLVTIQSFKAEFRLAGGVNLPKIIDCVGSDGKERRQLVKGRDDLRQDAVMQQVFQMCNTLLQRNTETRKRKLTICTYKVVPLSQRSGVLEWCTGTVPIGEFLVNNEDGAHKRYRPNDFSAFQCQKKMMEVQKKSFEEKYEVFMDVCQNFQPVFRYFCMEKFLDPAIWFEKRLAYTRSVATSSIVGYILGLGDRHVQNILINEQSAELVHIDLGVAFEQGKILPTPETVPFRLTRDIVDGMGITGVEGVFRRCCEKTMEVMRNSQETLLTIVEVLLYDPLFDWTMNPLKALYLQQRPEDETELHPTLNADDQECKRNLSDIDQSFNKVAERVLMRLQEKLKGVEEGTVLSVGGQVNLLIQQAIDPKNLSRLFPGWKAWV",
  "experiment": "IP with p-TAK1 antibody from lysates of bleomycin-treated PSC27 cells, Western blot (FIG. 2)",
  "data": [
    {"binder": "B1", "values": [
      {"measurement": "binding result", "result": "no binding"}
    ]}
  ]
}
